Assay results from US20260001928A1 (CORTERIA PHARMACEUTICALS, priority 2022, published 2026).
*1 amine or outer side, *2 acyl side, *3 side chain or, on linkers, in order; H or OH if unused. Where no end group is shown, it is not given here. Side-chain parts run from the residue outwards. [ ]: non-standard residue; d: D form. The star is where a group is joined. C18 diacid = O=C(O)CCCCCCCCCCCCCCCCC(=O)*; C16 diacid = O=C(O)CCCCCCCCCCCCCCC(=O)*; γGlu = O=C(O)[C@H](CCC(=O)[*:2])N[*:1]; αMeL = CC(C)C[C@](C)(N)C(=O)O; AEEA = NCCOCCOCC(=O)O; Aib = CC(C)(N)C(=O)O

T1: CRF1R receptor (UniProt P34998 24-415, limits assumed)
T1 sequence (looked up): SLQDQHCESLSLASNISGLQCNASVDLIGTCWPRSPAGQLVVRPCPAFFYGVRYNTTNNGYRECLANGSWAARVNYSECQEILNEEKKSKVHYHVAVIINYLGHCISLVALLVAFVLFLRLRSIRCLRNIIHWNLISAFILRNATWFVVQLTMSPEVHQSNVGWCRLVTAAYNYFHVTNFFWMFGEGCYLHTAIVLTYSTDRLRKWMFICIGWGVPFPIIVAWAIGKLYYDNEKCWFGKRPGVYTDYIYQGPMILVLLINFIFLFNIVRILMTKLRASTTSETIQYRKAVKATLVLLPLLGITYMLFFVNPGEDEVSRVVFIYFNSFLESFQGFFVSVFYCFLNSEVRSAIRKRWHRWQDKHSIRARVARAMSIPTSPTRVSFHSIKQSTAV

B1: SEQ ID NO 38 (peptide)
peptide: IVLSLDVPIK[αMeL]K([γGlu-C16 diacid])KILLEQEKQKKQREQAETN[Aib]QILAQV-NH2
modifications: N-terminus assumed
SMILES: CC[C@H](C)[C@H](N)C(=O)N[C@H](C(=O)N[C@@H](CC(C)C)C(=O)N[C@@H](CO)C(=O)N[C@@H](CC(C)C)C(=O)N[C@@H](CC(=O)O)C(=O)N[C@H](C(=O)N1CCC[C@H]1C(=O)N[C@H](C(=O)N[C@@H](CCCCN)C(=O)N[C@@](C)(CC(C)C)C(=O)N[C@@H](CCCCNC(=O)CC[C@H](NC(=O)CCCCCCCCCCCCCCC(=O)O)C(=O)O)C(=O)N[C@@H](CCCCN)C(=O)N[C@H](C(=O)N[C@@H](CC(C)C)C(=O)N[C@@H](CC(C)C)C(=O)N[C@@H](CCC(=O)O)C(=O)N[C@@H](CCC(N)=O)C(=O)N[C@@H](CCC(=O)O)C(=O)N[C@@H](CCCCN)C(=O)N[C@@H](CCC(N)=O)C(=O)N[C@@H](CCCCN)C(=O)N[C@@H](CCCCN)C(=O)N[C@@H](CCC(N)=O)C(=O)N[C@@H](CCCNC(=N)N)C(=O)N[C@@H](CCC(=O)O)C(=O)N[C@@H](CCC(N)=O)C(=O)N[C@@H](C)C(=O)N[C@@H](CCC(=O)O)C(=O)N[C@H](C(=O)N[C@@H](CC(N)=O)C(=O)NC(C)(C)C(=O)N[C@@H](CCC(N)=O)C(=O)N[C@H](C(=O)N[C@@H](CC(C)C)C(=O)N[C@@H](C)C(=O)N[C@@H](CCC(N)=O)C(=O)N[C@H](C(N)=O)C(C)C)[C@@H](C)CC)[C@@H](C)O)[C@@H](C)CC)[C@@H](C)CC)C(C)C)C(C)C
B2: SEQ ID NO 43 (peptide)
peptide: Ac-IVLSLDVPIK[αMeL]K([γGlu-C16 diacid])KILLEQEKQKKQREQAETN[Aib]QILAQV-NH2
SMILES: CC[C@H](C)[C@H](NC(C)=O)C(=O)N[C@H](C(=O)N[C@@H](CC(C)C)C(=O)N[C@@H](CO)C(=O)N[C@@H](CC(C)C)C(=O)N[C@@H](CC(=O)O)C(=O)N[C@H](C(=O)N1CCC[C@H]1C(=O)N[C@H](C(=O)N[C@@H](CCCCN)C(=O)N[C@@](C)(CC(C)C)C(=O)N[C@@H](CCCCNC(=O)CC[C@H](NC(=O)CCCCCCCCCCCCCCC(=O)O)C(=O)O)C(=O)N[C@@H](CCCCN)C(=O)N[C@H](C(=O)N[C@@H](CC(C)C)C(=O)N[C@@H](CC(C)C)C(=O)N[C@@H](CCC(=O)O)C(=O)N[C@@H](CCC(N)=O)C(=O)N[C@@H](CCC(=O)O)C(=O)N[C@@H](CCCCN)C(=O)N[C@@H](CCC(N)=O)C(=O)N[C@@H](CCCCN)C(=O)N[C@@H](CCCCN)C(=O)N[C@@H](CCC(N)=O)C(=O)N[C@@H](CCCNC(=N)N)C(=O)N[C@@H](CCC(=O)O)C(=O)N[C@@H](CCC(N)=O)C(=O)N[C@@H](C)C(=O)N[C@@H](CCC(=O)O)C(=O)N[C@H](C(=O)N[C@@H](CC(N)=O)C(=O)NC(C)(C)C(=O)N[C@@H](CCC(N)=O)C(=O)N[C@H](C(=O)N[C@@H](CC(C)C)C(=O)N[C@@H](C)C(=O)N[C@@H](CCC(N)=O)C(=O)N[C@H](C(N)=O)C(C)C)[C@@H](C)CC)[C@@H](C)O)[C@@H](C)CC)[C@@H](C)CC)C(C)C)C(C)C
B3: SEQ ID NO 102 (peptide)
peptide: Ac-IVLSLDVPIKLK([AEEA-AEEA-γGlu-C18 diacid])KILLEQEKQKKQREQAETNVQILAQV-NH2
SMILES: CC[C@H](C)[C@H](NC(C)=O)C(=O)N[C@H](C(=O)N[C@@H](CC(C)C)C(=O)N[C@@H](CO)C(=O)N[C@@H](CC(C)C)C(=O)N[C@@H](CC(=O)O)C(=O)N[C@H](C(=O)N1CCC[C@H]1C(=O)N[C@H](C(=O)N[C@@H](CCCCN)C(=O)N[C@@H](CC(C)C)C(=O)N[C@@H](CCCCNC(=O)COCCOCCNC(=O)COCCOCCNC(=O)CC[C@H](NC(=O)CCCCCCCCCCCCCCCCC(=O)O)C(=O)O)C(=O)N[C@@H](CCCCN)C(=O)N[C@H](C(=O)N[C@@H](CC(C)C)C(=O)N[C@@H](CC(C)C)C(=O)N[C@@H](CCC(=O)O)C(=O)N[C@@H](CCC(N)=O)C(=O)N[C@@H](CCC(=O)O)C(=O)N[C@@H](CCCCN)C(=O)N[C@@H](CCC(N)=O)C(=O)N[C@@H](CCCCN)C(=O)N[C@@H](CCCCN)C(=O)N[C@@H](CCC(N)=O)C(=O)N[C@@H](CCCNC(=N)N)C(=O)N[C@@H](CCC(=O)O)C(=O)N[C@@H](CCC(N)=O)C(=O)N[C@@H](C)C(=O)N[C@@H](CCC(=O)O)C(=O)N[C@H](C(=O)N[C@@H](CC(N)=O)C(=O)N[C@H](C(=O)N[C@@H](CCC(N)=O)C(=O)N[C@H](C(=O)N[C@@H](CC(C)C)C(=O)N[C@@H](C)C(=O)N[C@@H](CCC(N)=O)C(=O)N[C@H](C(N)=O)C(C)C)[C@@H](C)CC)C(C)C)[C@@H](C)O)[C@@H](C)CC)[C@@H](C)CC)C(C)C)C(C)C
B4: SEQ ID NO 40 (peptide)
peptide: Ac-IVLSLD[dV]PIKLK([γGlu-C16 diacid])KILLEQEKQKKQREQAETN[Aib]QILAQV-NH2
SMILES: CC[C@H](C)[C@H](NC(C)=O)C(=O)N[C@H](C(=O)N[C@@H](CC(C)C)C(=O)N[C@@H](CO)C(=O)N[C@@H](CC(C)C)C(=O)N[C@@H](CC(=O)O)C(=O)N[C@@H](C(=O)N1CCC[C@H]1C(=O)N[C@H](C(=O)N[C@@H](CCCCN)C(=O)N[C@@H](CC(C)C)C(=O)N[C@@H](CCCCNC(=O)CC[C@H](NC(=O)CCCCCCCCCCCCCCC(=O)O)C(=O)O)C(=O)N[C@@H](CCCCN)C(=O)N[C@H](C(=O)N[C@@H](CC(C)C)C(=O)N[C@@H](CC(C)C)C(=O)N[C@@H](CCC(=O)O)C(=O)N[C@@H](CCC(N)=O)C(=O)N[C@@H](CCC(=O)O)C(=O)N[C@@H](CCCCN)C(=O)N[C@@H](CCC(N)=O)C(=O)N[C@@H](CCCCN)C(=O)N[C@@H](CCCCN)C(=O)N[C@@H](CCC(N)=O)C(=O)N[C@@H](CCCNC(=N)N)C(=O)N[C@@H](CCC(=O)O)C(=O)N[C@@H](CCC(N)=O)C(=O)N[C@@H](C)C(=O)N[C@@H](CCC(=O)O)C(=O)N[C@H](C(=O)N[C@@H](CC(N)=O)C(=O)NC(C)(C)C(=O)N[C@@H](CCC(N)=O)C(=O)N[C@H](C(=O)N[C@@H](CC(C)C)C(=O)N[C@@H](C)C(=O)N[C@@H](CCC(N)=O)C(=O)N[C@H](C(N)=O)C(C)C)[C@@H](C)CC)[C@@H](C)O)[C@@H](C)CC)[C@@H](C)CC)C(C)C)C(C)C

These binders were tested against T1, CRF1R receptor (assay: cell-based or functional assay).

Compared with B1, B2 is lower in “Emax (% I)” value: 6% for the first, 1% for the second.

Compared with B3, Ac-IVLSLDVPIK[αMeL]K([γGlu-C16 diacid])KILLEQEKQKKQREQAETNVQILAQV-NH2 [SEQ ID NO 49] is higher in “Emax (% I)” value: -5% for the first, -3% for the second.

Compared with B4, IVLSLD[dV]PIKLK([AEEA-AEEA-γGlu-γGlu-C16 diacid])QILLKQERQKKQREQAEKNKQILEQV-NH2 [SEQ ID NO 146] is higher in “Emax (% I)” value: 0% for the first, 27% for the second.

With IVLSLD[dV]PIKLK([AEEA-AEEA-γGlu-γGlu-C16 diacid])QILLKQERQKKQREQAEKNKQILEQV-NH2 [SEQ ID NO 146] the “EC50” value was 100 nM.

What follows are binders tested against human corticotropin-releasing factor 2a (CRF2a receptor) (human), Q13324 (assay: cell-based or functional assay).
Chain of human corticotropin-releasing factor 2a (CRF2a receptor) (human), Q13324 (Q13324 20-411): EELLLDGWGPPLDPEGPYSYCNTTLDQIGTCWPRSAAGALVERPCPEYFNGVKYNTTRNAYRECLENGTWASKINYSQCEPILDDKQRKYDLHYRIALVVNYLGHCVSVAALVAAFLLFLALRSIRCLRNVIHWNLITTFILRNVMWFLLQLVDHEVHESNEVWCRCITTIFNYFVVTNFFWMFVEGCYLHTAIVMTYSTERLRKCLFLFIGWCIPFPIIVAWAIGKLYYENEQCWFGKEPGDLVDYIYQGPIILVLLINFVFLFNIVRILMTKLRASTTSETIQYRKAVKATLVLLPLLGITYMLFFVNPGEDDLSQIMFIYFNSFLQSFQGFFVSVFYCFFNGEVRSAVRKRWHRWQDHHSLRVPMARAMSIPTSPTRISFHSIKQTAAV

Going from B1 to B2, the EC50 [nM] (cAMP) falls from 0.49 nM to 0.3 nM (1.6-fold).

First: B3
Second: Ac-IVLSLDVPIK[αMeL]K([γGlu-C16 diacid])KILLEQEKQKKQREQAETNVQILAQV-NH2 [SEQ ID NO 49]
The EC50 [nM] (cAMP) of the first is 19-fold higher: 17.6 nM for the first, 0.92 nM for the second.

First: B4
Second: IVLSLD[dV]PIKLK([AEEA-AEEA-γGlu-γGlu-C16 diacid])QILLKQERQKKQREQAEKNKQILEQV-NH2 [SEQ ID NO 146]
The EC50 [nM] (cAMP) of the first is 2.5-fold higher: 0.25 nM for the first, 0.1 nM for the second.
